Measurements reported in publication PMC2673439.

Tests used:
[1] = biological target: T1, tvMyb1(35-141) (Trichomonas vaginalis, UniProt Q58HP2 35-141); assay: SPR
T1 sequence: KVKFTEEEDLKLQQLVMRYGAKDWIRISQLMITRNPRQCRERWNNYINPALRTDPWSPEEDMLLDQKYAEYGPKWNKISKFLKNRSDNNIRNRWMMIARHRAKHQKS

[2] = biological target: T2, tvMyb1(35-141) T67A (Trichomonas vaginalis, UniProt Q58HP2 35-141, T67A); assay: SPR
T2 sequence: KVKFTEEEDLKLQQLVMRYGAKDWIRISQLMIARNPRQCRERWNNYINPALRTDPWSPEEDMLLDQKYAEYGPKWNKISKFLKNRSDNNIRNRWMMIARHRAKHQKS

B1: MRE-1/MRE-2r 16-bp duplex, 5'-biotin (dsDNA)
DNA 1: AAGATAACGATATTTA
DNA 2: TAAATATCGTTATCTT
- Kd [1]: 1.24 nM
- binding result [2]: binds
